These results are taken from publication PMC3308961, “Chemical Mechanism of UDP-Galactopyranose Mutase from Trypanosoma cruzi: A Potential Drug Target against Chagas' Disease” (PLoS ONE, 2012).

The target in one series is T1, TcUGM (Trypanosoma cruzi, UniProt Q4E1W2).
T1 construct: gene Tc00.1047053507993.160
As to the kind of experiment: UV-visible spectrum of purified enzyme; HPLC of released flavin. Type of series: binding. The following applies: noncovalently bound, co-purified.

The test system of series [1] is NC(=O)C1=CN([C@@H]2O[C@H](COP(=O)(O)OP(=O)(O)OC[C@H]3O[C@@H](n4cnc5c(N)ncnc54)[C@H](OP(=O)(O)O)[C@@H]3O)[C@@H](O)[C@H]2O)C=CC1. In words: purified protein. The following applies: oxidase activity (kox), air-saturated 50 mM phosphate pH 7.0, room temperature, no UDP-Galp.
The subject of series [2] is NC(=O)C1=CN([C@@H]2O[C@H](COP(=O)(O)OP(=O)(O)OC[C@H]3O[C@@H](n4cnc5c(N)ncnc54)[C@H](O)[C@@H]3O)[C@@H](O)[C@H]2O)C=CC1. As to the kind of experiment: purified protein. The following applies: oxidase activity (kox), air-saturated 50 mM phosphate pH 7.0, room temperature, no UDP-Galp.
The subject of series [3] is O=c1ccn([C@@H]2O[C@H](COP(=O)(O)OP(=O)(O)O[C@H]3O[C@@H]([C@H](O)CO)[C@H](O)[C@H]3O)[C@@H](O)[C@H]2O)c(=O)[nH]1. In words: purified protein. The following applies: reduced with 20 mM dithionite, 25 mM Hepes, 125 mM NaCl pH 7.5, 37°C.

T1 sequence (Q4E1W2 entry or part of it): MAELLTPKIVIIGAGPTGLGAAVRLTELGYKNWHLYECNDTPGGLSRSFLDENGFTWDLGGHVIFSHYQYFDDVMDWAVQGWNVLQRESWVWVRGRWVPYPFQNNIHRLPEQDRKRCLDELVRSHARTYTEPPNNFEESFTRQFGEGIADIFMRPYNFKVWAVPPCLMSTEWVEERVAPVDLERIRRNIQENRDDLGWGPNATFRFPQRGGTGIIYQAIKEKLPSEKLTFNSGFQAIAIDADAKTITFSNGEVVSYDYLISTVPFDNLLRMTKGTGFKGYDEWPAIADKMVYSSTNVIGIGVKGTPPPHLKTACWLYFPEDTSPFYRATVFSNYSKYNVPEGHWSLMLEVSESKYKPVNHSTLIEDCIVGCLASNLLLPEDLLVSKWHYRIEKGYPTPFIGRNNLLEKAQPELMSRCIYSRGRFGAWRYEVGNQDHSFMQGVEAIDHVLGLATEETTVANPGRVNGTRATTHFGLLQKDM

As to `Cc1cc2nc3c(=O)[nH]c(=O)nc-3n(C[C@H](O)[C@H](O)[C@H](O)COP(=O)(O)OP(=O)(O)OC[C@H]3O[C@@H](n4cnc5c(N)ncnc54)[C@H](O)[C@@H]3O)c2cc1C` [FAD], the “UV-visible spectrum of purified enzyme; HPLC of released flavin” value at TcUGM was “Recombinant TcUGM contained noncovalently bound flavin cofactor”.
By Km is commonly meant the concentration of substrate that gives half-maximal velocity. What is called kcat is the number of substrate molecules converted per active site and unit of time at saturation. The term kcat/Km denotes the second-order rate constant that governs catalysis at low substrate concentration. For “TcUGM (Trypanosoma cruzi strain CL Brener)”, in series [1], the Km came out at 15 ± 2 µM and the kcat stood at 0.030 ± 0.002 s⁻¹. In series [2], the Km was found to be 90 ± 20 µM and the kcat turned out to be 0.015 ± 0.002 s⁻¹. Also, in series [3], the Km stood at 140 ± 10 µM, the kcat turned out to be 13.4 ± 0.3 s⁻¹ and the kcat/Km is 93000 ± 6000 M⁻¹ s⁻¹.
